Laboratory results from PMC9712689.

Experiments:
[1] = biological target: cross-linked RlpA-Δ32·MltF2 complex (SPR chip) (P. aeruginosa PAO1) (UniProt Q9X6V6); test: SPR
[2] = biological target: RlpA-SPOR (P. aeruginosa PAO1) (UniProt Q9X6V6); test: ITC
[3] = biological target: RlpA-Δ32 (P. aeruginosa PAO1) (UniProt Q9X6V6); test: SPR
[4] = biological target: RlpA-SPOR (P. aeruginosa PAO1) (UniProt Q9X6V6); test: SPR
[5] = biological target: RlpA-Δ32·MltF2 complex (MST) (P. aeruginosa PAO1) (UniProt Q9X6V6); test: MST
[6] = biological target: RlpA-Δ32, fluorescently labeled (P. aeruginosa PAO1) (UniProt Q9X6V6); test: MST

PBP1a (from UniProt Q07806 27-822) (enzyme)
Kd [1]: 280 nM | koff [1]: 0.0048 s⁻¹ | kon [1]: 51700 M⁻¹ s⁻¹

SltB3 (enzyme)
Kd [2]: 79 nM | stoichiometry N [2]: 1 | Kd [3]: 140 nM | koff [3]: 0.00079 s⁻¹ | kon [3]: 5500 M⁻¹ s⁻¹ | Kd [4]: 2140 nM | koff [4]: 0.00079 s⁻¹ | kon [4]: 370 M⁻¹ s⁻¹ | Kd [5]: 390 nM | Kd [6]: 92 nM

PBP1b (enzyme)
Kd [3]: 55 nM | koff [3]: 0.0005 s⁻¹ | kon [3]: 9100 M⁻¹ s⁻¹ | Kd [5]: 57 nM | Kd [6]: 16 nM
